Patent US8703913B2, “Sensor” (Medical Research Council, priority 2008, dated 2014)
Where a chain is given by its changes, count along the chain named. Names may count otherwise. Read-outs that look alike come from different tables or passages of the source.

B1: PcrA: DNA helicase from Bacillus stearothermophilus involved in plasmid replication (protein, UniProt P56255 1-724, looked up)
ATP-dependent DNA helicase …: MNFLSEQLLAHLNKEQQEAVRTTEGPLLIMAGAGSGKTRVLTHRIAYLMAEKHVAPWNILAITFTNKAAREMRERVQSLLGGAAEDVWISTFHSMCVRILRRDIDRIGINRNFSILDPTDQLSVMKTILKEKNIDPKKFEPRTILGTISAAKNELLPPEQFAKRASTYYEKVVSDVYQEYQQRLLRNHSLDFDDLIMTTIQLFDRVPDVLHYYQYKFQYIHIDEYQDTNRAQYTLVKKLAERFQNICAVGDADQSIYRWRGADIQNILSFERDYPNAKVILLEQNYRSTKRILQAANEVIEHNVNRKPKRIWTENPEGKPILYYEAMNEADEAQFVAGRIREAVERGERRYRDFAVLYRTNAQSRVMEEMLLKANIPYQIVGGLKFYDRKEIKDILAYLRVIANPDDDLSLLRIINVPKRGIGASTIDKLVRYAADHELSLFEALGELEMIGLGAKAAGALAAFRSQLEQWTQLQEYVSVTELVEEVLDKSGYREMLKAERTIEAQSRLENLDEFLSVTKHFENVSDDKSLIAFLTDLALISDLDELDGTEQAAEGDAVMLMTLHAAKGLEFPVVFLIGMEEGIFPHNRSLEDDDEMEEERRLAYVGITRAEEELVLTSAQMRTLFGNIQMDPPSRFLNEIPAHLLETASRRQAGASRPAVSRPQASGAVGSWKVGDRANHRKWGIGTVVSVRGGGDDQELDIAFPSPIGIKRLLAKFAPIEKV
B2: wild-type ParM: prokaryotic actin homologue encoded on Escherichia coli plasmid R1, accession P11904 (protein, listed as Escherichia coli)
chain: MLVFIDDGSTNIKLQWQESDGTIKQHISPNSFKREWAVSFGDKKVFNYTLNGEQYSFDPISPDAVVTTNIAWQYSDVNVVAVHHALLTSGLPVSEVDIVCTLPLTEYYDRNNQPNTENIERKKANFRKKITLNGGDTFTIKDVKVMPESIPAGYEVLQELDELDSLLIIDLGGTTLDISQVMGKLSGISKIYGDSSLGVSLVTSAVKDALSLARTKGSSYLADDIIIHRKDNNYLKQRINDENKISIVTEAMNEALRKLEQRVLNTLNEFSGYTHVMVIGGGAELICDAVKKHTQIRDERFFKTNNSQYDLVNGMYLIGN
B3: T174A T175A: MDCC-ParM (His6/I27C/T174A/T175A/C287A) (conjugate, UniProt P11904 1-320, looked up, variant I27C T174A T175A C287A)
Plasmid segregation protein …: B2 chain with I27C, T174A, T175A, C287A
modifications: MDCC label; His6 tag
B4: E148R: MDCC-ParM (His6/I27C/E148R/C287A) (conjugate, UniProt P11904 1-320, looked up, variant I27C E148R C287A)
Plasmid segregation protein …: B2 chain with I27C, E148R, C287A
modifications: MDCC label, His6 tag
B5: T175H: MDCC-ParM (His6/I27C/T175H/C287A) (conjugate, UniProt P11904 1-320, looked up, variant I27C T175H C287A)
Plasmid segregation protein …: B2 chain with I27C, T175H, C287A
modifications: MDCC label; His6 tag
B6: T175N: MDCC-ParM (His6/I27C/T175N/C287A) (conjugate, UniProt P11904 1-320, looked up, variant I27C T175N C287A)
Plasmid segregation protein …: B2 chain with I27C, T175N, C287A
modifications: MDCC label; His6 tag
B7: S9Q: MDCC-ParM (His6/S9Q/I27C/C287A) (conjugate, UniProt P11904 1-320, looked up, variant S9Q I27C C287A)
Plasmid segregation protein …: B2 chain with S9Q, I27C, C287A
modifications: MDCC label; His6 tag
B8: T175A: MDCC-ParM (His6/I27C/T175A/C287A) (conjugate, UniProt P11904 1-320, looked up, variant I27C T175A C287A)
Plasmid segregation protein …: B2 chain with I27C, T175A, C287A
modifications: MDCC label; His6 tag
B9: S9A: MDCC-ParM (His6/S9A/I27C/C287A) (conjugate, UniProt P11904 1-320, looked up, variant S9A I27C C287A)
Plasmid segregation protein …: B2 chain with S9A, I27C, C287A
modifications: MDCC label; His6 tag
B10: T175L: MDCC-ParM (His6/I27C/T175L/C287A) (conjugate, UniProt P11904 1-320, looked up, variant I27C T175L C287A)
Plasmid segregation protein …: B2 chain with I27C, T175L, C287A
modifications: MDCC label; His6 tag
B11: T175F: MDCC-ParM (His6/I27C/T175F/C287A) (conjugate, UniProt P11904 1-320, looked up, variant I27C T175F C287A)
Plasmid segregation protein …: B2 chain with I27C, T175F, C287A
modifications: MDCC label; His6 tag
B12: T174A: MDCC-ParM (His6/I27C/T174A/C287A) (conjugate, UniProt P11904 1-320, looked up, variant I27C T174A C287A)
Plasmid segregation protein …: B2 chain with I27C, T174A, C287A
modifications: MDCC label; His6 tag

Key:
PcrA helicase = PcrA helicase (Geobacillus stearothermophilus, UniProt P56255); assay: Steady-state ATP hydrolysis by PcrA helicase monitored with the biosensor; type: biochemical, Bacillus stearothermophilus; conditions: for initial rate of ADP generation: 3.8 μM dT16, 10 μM MDCC-ParM, 20° C.
[1] = reported (19); read-out: dissociation constant for ethenoADP; cited from earlier work
[2] = 37° C.; reported (16); cited from earlier work
[3] = reported (19), cited from earlier work
[4] = Fluorescence titration of labeled ParM with ATP; type: binding; conditions: Table 2; for ATP F+ATP/F−ATP: MDCC-ParM mutants; for ATP F+ATP/F−ATP / Kd: 20° C.; for Kd: highly purified ATP containing only 0.03% ADP
Method: The MDCC fluorescence was excited at 431 nm and emission was recorded at 474 nm. The equilibrium dissociation constants were determined by fitting a quadratic binding curve to the data. For the plot the experimental fluorescence intensities were converted to the nucleotide bound fraction of ParM.
(§1) The equilibrium dissociation constants were determined by fitting a quadratic binding curve to the data and are listed in Table Y. For the plot the experimental fluorescence intensities were normalized to the maximal fluorescence change obtained at saturation with ADP.
ADP and ATP were purchased from Sigma at the highest purity available. The purity of the nucleotides was analysed by HPLC using a Partisphere SAX column, 125×4.5 mm (Whatman). Nucleotide separation was performed isocratic with 0.3 M (NH4)2HPO4 buffer pH 4.0, 25% MeOH, and the absorbance at 260 nm was monitored.
(§2) [formula] where [P] and [L] are the total concentrations of protein and ligand, respectively, Kd is the dissociation constant and Fmin and Fmax are the fluorescence intensities of the free and ligand bound protein.
(§3) Fluorescence spectra and titrations were measured in a Cary Eclipse spectrofluorimeter (Varian). Excitation and emission spectra were recorded with 5 nm slit width at emission and excitation wavelength of 576 nm and 553 nm, respectively. In titration experiments rhodamine fluorescence was measured at the same excitation/emission wavelength. Titration data were analyzed with a quadratic binding curve using the program Grafit 5.0 (7).

[5] = Fluorescence titration of labeled ParM with ADP; type: binding; conditions: Table 2, 20° C.; for ADP F+ADP/F−ADP: MDCC-ParM mutants; for Kd: fluorescence titration
Method: MDCC fluorescence was excited at 431 nm and detected at 474 nm, for the rhodamine-labeled proteins, excitation and emission wavelengths of 553 nm and 578 nm were used. […] The fraction of ParM bound to ADP was calculated from the fluorescence intensities.
The MDCC fluorescence was excited at 431 nm and emission was recorded at 474 nm. The equilibrium dissociation constants were determined by fitting a quadratic binding curve to the data.
as §1, §2, §3

[6] = Stopped-flow kinetics of ADP binding and dissociation; conditions: Table 3; for kon: ADP association, stopped-flow; for kon / koff: 20° C.; for Kd: calculated as koff/kon; for koff: displacement with unlabeled ParM
[7] = 2 nM PcrA, 0.5 μM dT20, 5 μM MDCC-ParM, set of calibration curves
[8] = measured with phosphate biosensor MDCC-PBP

Molecule | Kd ratio ATP/ADP [4] | ATP F+ATP/F−ATP [4] | Kd [4] [nM] | ADP F+ADP/F−ADP [5] | Kd [5] [nM] | other results
B1 | – | – | – | – | – | initial rate of ADP generation (PcrA helicase; 1 nM PcrA, 5 μM ATP): 10.4 nM/s; Km (PcrA helicase; [7]): 1.6 µM; kcat (PcrA helicase; [7]): 13.7 s⁻¹; initial rate of ADP generation (PcrA helicase; 2 nM PcrA, 5 μM ATP): 19.9 nM/s; kcat (PcrA helicase; calibration at 15 μM total nucleotide concentration): 14.0 s⁻¹; kcat (PcrA helicase; calibration in the absence of ATP): 12.2 s⁻¹; steady state hydrolysis activity (PcrA helicase; measured with MDCC-ParM, 5 μM ATP, background subtracted): 6.8 s⁻¹; Km (PcrA helicase; [8]): 1.7 µM; kcat (PcrA helicase; [8]): 11.5 s⁻¹; steady state hydrolysis activity (PcrA helicase; [8]): 7.2 s⁻¹; Michaelis-Menten constant for ATP (PcrA helicase; single calibration used for all ATP concentrations): 1.4 µM
B2 | – | – | – | – | – | Kd [1]: 2400 nM; ATPase activity accelerated by polymerization [2]: ~3 min⁻¹; ethenoATP bound tighter than ethenoADP [3]: 60 fold; Kd ([3]; read-out: Kd for ethenoATP): 40 nM; Kd ([3]; read-out: dissociation constant for ethenoATP): 40 nM
B3 | 324 | 3.2 | 107000 | 3.3 | 330 | kon [6]: 980000 M⁻¹ s⁻¹; Kd [6]: 220 nM; koff [6]: 0.22 s⁻¹
B4 | – | <1.1 | – | <1.1 | – | –
B5 | 0.4 | 3.9 | 160 | 3.2 | 400 | –
B6 | 307 | 3.2 | 184000 | 3.4 | 600 | kon [6]: 640000 M⁻¹ s⁻¹; Kd [6]: 420 nM; koff [6]: 0.27 s⁻¹
B7 | 40 | 2.8 | 66000 | 3.2 | 1660 | –
B8 | 168 | 3.3 | 62000 | 3.3 | 370 | –
B9 | 39 | 2.9 | 98000 | 3.1 | 2500 | –
B10 | 324 | 2.3 | 507000 | 1.9 | 1570 | kon [6]: 340000 M⁻¹ s⁻¹; Kd [6]: 810 nM; koff [6]: 0.28 s⁻¹
B11 | 29 | 2.5 | 137000 | 2.5 | 4700 | –
B12 | 164 | 3.1 | 64000 | 2.9 | 390 | –
